Patent US20160177276A1 (Merck KGaA, published 2016)
Each block holds one binder with its values, some of them ahead of it.

Key:
CD47 [1] = target: T1, CD47 (human, UniProt Q08722 19-323); assay: flow cytometry on CD47-transfected CHO cells
T1 construct: whole, on cells; Human by the cells used (blood of human donors; human Ramos, A549, BT474, Raji, Namalwa cells); also called human CD47

HER2 = target: T2, HER2 (human, UniProt P04626 23-1255); assay: flow cytometry on BT474 cells
T2 construct: whole, on cells; The cells carry CD47 as well
Protocol: After washing with PBS+1% FBS, cells were incubated with FITC F(ab′)2 goat Anti-Human IgG, Fcγ (Jackson ImmunoResearch, West Grove, Pa.), diluted 1:200 in PBS+1% FBS for 60 min on ice. After washing again, cells were fixed with 1% formaldehyde in PBS. Cells were analyzed by flow cytometry (MACSQuant, Miltenyi Biotec, Cologne, Germany).

CD47 [2] = target: T1, CD47; assay: flow cytometry on CD47-low human Ramos cells
Protocol: (§1) After washing again, cells were fixed with 1% formaldehyde in PBS. Cells were analyzed by flow cytometry (MACSQuant, Miltenyi Biotec, Cologne, Germany).

CD47 [3] = target: T1, CD47; assay: flow cytometry on CD47-high (CD47-transfected) CHO cells
Protocol: as §1

binding result (CD47 [1]): no binding
B1: anti-CD20 huIgG1 (antibody, V domains shown)
VH: QVQLQQPGAELVKPGASVKMSCKASGYTFTSYNMHWVKQTPGRGLEWIGAIYPGNGDTSYNQKFKGKATLTADKSSSTAYMQLSSLTSEDSAVYYCARSTYYGGDWYFNVWGAGTTVTVSA
VL: QIVLSQSPAILSASPGEKVTMTCRASSSVSYIHWFQQKPGSSPKPWIYATSNLASGVPVRFSGSGSGTSYSLTISRVEAEDAATYYCQQWTSNPPTFGGGTKLEIKR
notes: Control in standard monoclonal antibody format, huIgG1, based on 2B8 (rituximab); not shown: rest of the human IgG1 heavy chain

binding result (HER2): binds | binding result (CD47 [1]): no binding
B2: Fcab(HER2) (other)
chain: EPKSSDKTHTCPPCPAPELLGGPSVFLFPPKPKDTLMISRTPEVTCVVVDVSHEDPEVKFNWYVDGVEVHNAKTKPREEQYNSTYRVVSVLTVLHQDWLNGKEYKCKVSNKALPAPIEKTISKAKGQPREPQVYTLPPSRDEYLYGDVSLTCLVKGFYPSDIAVEWESNGQPENNYKTTPPVLDSDGSFFLYSKLTVPRHSARMWRWAHGNVFSCSVMHEALHNHYTQKSLSLSPGK
notes: also called anti-HER2 Fcab H10-03-6

EC50 (CD47 [2]): 6 nM | EC50 (CD47 [3]): 7 nM
B3: chimeric antibody B6H12/huIgG1 (antibody, V domains shown)
VH: EVQLQESGGDLVKPGGSLKLSCAASGFTFSGYGMSWVRQTPDKRLEWVATITSGGTYTYYPDSVKGRFTISRDNAKNTLYLQIDSLKSEDTAIYFCARSLAGNAMDYWGQGTTVTVSS
VL: DIVITQSPATLSVTPGDRVSLSCRASQTISDYLHWYQQKSHESPRLLIKFASQSISGIPSRFSGSGSGSDFTLSINSVEPEDVGVYYCQNGHGFPRTFGGGTKLEIKR
notes: also called anti-CD47; anti-CD47 huIgG1
